Results taken from paper PMC5103362 (Autophagy, 2016).

B1: Vps34 D731N (KI) (enzyme, S. cerevisiae, UniProt P22543 1-875, looked up)
chain: MSLNNITFCVSQDLDVPLKVKIKSLEGHKPLLKPSQKILNPELMLIGSNVFPSSDLIVSLQVFDKERNRNLTLPIYTPYIPFRNSRTWDYWLTLPIRIKQLTFSSHLRIILWEYNGSKQIPFFNLETSIFNLKDCTLKRGFESLKFRYDVIDHCEVVTDNKDQENLNKYFQGEFTRLPWLDEITISKLRKQRENRTWPQGTFVLNLEFPMLELPVVFIEREIMNTQMNIPTLKNNPGLSTDLREPNRNDPQIKISLGDKYHSTLKFYDPDQPNNDPIEEKYRRLERASKNANLDKQVKPDIKKRDYLNKIINYPPGTKLTAHEKGSIWKYRYYLMNNKKALTKLLQSTNLREESERVEVLELMDSWAEIDIDDALELLGSTFKNLSVRSYAVNRLKKASDKELELYLLQLVEAVCFENLSTFSDKSNSEFTIVDAVSSQKLSGDSMLLSTSHANQKLLKSISSESETSGTESLPIVISPLAEFLIRRALVNPRLGSFFYWYLKSESEDKPYLDQILSSFWSRLDKKSRNILNDQVRLINVLRECCETIKRLKDTTAKKMELLVHLLETKVRPLVKVRPIALPLDPDVLICDVCPETSKVFKSSLSPLKITFKTTLNQPYHLMFKVGDDLRQDQLVVQIISLMNELLKNENVDLKLTPYKILATGPQEGAIEFIPNDTLASILSKYHGILGYLKLHYPDENATLGVQGWVLDNFVKSCAGYCVITYILGVGNRHLDNLLVTPDGHFFHADFGYILGQDPKPFPPLMKLPPQIIEAFGGAESSNYDKFRSYCFVAYSILRRNAGLILNLFELMKTSNIPDIRIDPNGAILRVRERFNLNMSEEDATVHFQNLINDSVNALLPIVIDHLHNLAQYWRT
B2: Atg38, full-length (natural protein, S. cerevisiae, UniProt Q05789 1-226, looked up)
chain: MSTLAEVYTIIEDAEQECRKGDFTNAKAKYQEAIEVLGPQNENLSQNKLSSDVTQAIDLLKQDITAKIQELELLIEKQSSEENNIGMVNNNMLIGSVILNNKSPINGISNARNWDNPAYQDTLSPINDPLLMSILNRLQFNLNNDIQLKTEGGKNSKNSEMKINLRLEQFKKELVLYEQKKFKEYGMKIDEITKENKKLANEIGRLRERWDSLVESAKQRRDKQKN
notes: also called purified Atg38; free Atg38; source: E. coli, purified (Glutathione Sepharose, TEV, HiTrap Q, S75); not shown: GST, N-terminal, cleaved

What was measured:
Vps15 (WD40Δ) (1 to 981) = molecular target: T1, Vps15 (WD40Δ) (1 to 981) (S. cerevisiae, UniProt P22219 1-981); test: negative-stain EM reconstruction; co-purified yeast Vps15-Vps34 D731N and Vps15 (WD40Δ)-Vps34 D731N dimers, 2% uranyl acetate; 28 Å; conditions: both partners purified
T1 construct: Vps15, yeast (S. cerevisiae), residues 1 to 981, without the WD40 domain; also called Vps15Δ WD40; ScVps15 (WD40Δ)
T1 sequence (looked up): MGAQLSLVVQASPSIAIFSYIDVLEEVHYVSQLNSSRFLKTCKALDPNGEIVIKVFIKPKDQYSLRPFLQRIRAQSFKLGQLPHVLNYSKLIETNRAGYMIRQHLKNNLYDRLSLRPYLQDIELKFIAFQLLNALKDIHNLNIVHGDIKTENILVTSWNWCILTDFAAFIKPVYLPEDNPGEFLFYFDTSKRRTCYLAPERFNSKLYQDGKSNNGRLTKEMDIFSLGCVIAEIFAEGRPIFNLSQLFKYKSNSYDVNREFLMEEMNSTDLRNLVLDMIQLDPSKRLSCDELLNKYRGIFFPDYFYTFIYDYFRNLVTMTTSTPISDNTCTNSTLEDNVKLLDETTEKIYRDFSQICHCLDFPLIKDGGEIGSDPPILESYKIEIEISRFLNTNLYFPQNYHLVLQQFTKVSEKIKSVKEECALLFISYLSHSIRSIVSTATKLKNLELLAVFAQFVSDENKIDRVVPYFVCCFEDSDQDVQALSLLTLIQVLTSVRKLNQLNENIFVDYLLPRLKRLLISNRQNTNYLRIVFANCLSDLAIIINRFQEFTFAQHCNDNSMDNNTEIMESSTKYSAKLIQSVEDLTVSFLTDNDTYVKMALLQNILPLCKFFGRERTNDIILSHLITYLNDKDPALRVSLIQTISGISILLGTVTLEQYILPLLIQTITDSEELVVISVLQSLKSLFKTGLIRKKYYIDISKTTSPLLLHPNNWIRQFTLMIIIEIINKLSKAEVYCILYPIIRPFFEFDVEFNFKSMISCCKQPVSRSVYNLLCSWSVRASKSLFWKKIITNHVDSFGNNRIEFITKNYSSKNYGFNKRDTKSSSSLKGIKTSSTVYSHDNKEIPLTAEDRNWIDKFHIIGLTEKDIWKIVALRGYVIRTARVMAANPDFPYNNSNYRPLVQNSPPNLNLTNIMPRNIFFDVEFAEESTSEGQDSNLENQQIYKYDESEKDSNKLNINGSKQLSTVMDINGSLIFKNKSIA

[1] = molecular target: T2, Vps15, full-length (of the Vps15-Vps34 D731N dimer) (S. cerevisiae, UniProt P22219 1-1454); test: as above; conditions: both partners purified
T2 construct: Vps15, yeast (S. cerevisiae), full-length; also called ScVps15
T2 sequence (looked up): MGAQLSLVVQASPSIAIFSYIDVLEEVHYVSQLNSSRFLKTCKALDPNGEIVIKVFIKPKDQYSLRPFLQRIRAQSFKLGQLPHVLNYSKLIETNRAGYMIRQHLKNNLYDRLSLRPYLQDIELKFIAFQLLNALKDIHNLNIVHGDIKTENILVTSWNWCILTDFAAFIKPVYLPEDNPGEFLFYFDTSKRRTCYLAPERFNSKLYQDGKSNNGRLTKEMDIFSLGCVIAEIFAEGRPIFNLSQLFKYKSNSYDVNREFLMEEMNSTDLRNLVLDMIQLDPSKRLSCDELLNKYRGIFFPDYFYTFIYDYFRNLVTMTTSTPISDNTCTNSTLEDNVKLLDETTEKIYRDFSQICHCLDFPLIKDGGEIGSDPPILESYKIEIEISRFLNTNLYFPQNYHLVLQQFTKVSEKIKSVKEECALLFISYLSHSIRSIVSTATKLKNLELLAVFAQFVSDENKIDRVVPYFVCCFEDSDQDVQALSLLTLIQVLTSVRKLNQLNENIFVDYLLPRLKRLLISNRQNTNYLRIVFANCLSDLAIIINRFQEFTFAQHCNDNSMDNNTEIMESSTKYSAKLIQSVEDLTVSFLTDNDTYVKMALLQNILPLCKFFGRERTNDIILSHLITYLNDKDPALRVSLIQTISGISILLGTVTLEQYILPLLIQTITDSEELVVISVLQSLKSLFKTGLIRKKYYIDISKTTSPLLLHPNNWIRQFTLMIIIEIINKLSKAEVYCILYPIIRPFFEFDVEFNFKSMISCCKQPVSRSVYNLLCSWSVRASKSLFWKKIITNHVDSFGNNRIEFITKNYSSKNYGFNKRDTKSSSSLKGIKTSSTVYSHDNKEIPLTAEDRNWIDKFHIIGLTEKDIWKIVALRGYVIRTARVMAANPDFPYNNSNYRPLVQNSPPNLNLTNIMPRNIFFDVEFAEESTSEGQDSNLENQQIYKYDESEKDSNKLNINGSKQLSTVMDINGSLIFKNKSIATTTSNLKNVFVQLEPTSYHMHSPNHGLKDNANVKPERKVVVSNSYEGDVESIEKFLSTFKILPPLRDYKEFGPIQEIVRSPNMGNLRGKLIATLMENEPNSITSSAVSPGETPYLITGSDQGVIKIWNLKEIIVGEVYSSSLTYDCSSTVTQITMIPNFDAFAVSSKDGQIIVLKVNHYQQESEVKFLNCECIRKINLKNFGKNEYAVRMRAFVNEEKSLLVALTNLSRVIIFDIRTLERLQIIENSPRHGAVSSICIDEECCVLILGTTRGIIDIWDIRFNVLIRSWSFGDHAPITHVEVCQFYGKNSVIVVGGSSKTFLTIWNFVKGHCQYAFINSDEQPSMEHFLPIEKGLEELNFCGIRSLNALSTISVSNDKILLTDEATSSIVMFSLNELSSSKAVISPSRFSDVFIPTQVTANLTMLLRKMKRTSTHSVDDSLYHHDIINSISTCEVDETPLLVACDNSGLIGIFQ

[2] = molecular target: T3, yeast complex I (Vps15-Vps34-Vps30-Atg14 heterotetramer) (S. cerevisiae, UniProt P22219 1-1454; P22543 1-875; Q02948 1-557; P38270 1-344); test: SEC-MALS; purified yeast complex I (co-expressed, co-purified) and gel-filtration purified complex I + Atg38 on S200 10/30; 20 mM Tris pH 8.8, 150 mM NaCl, 1 mM TCEP; conditions: both partners purified
T3 construct: Vps15, S. cerevisiae, subunit of complex I; Vps34, S. cerevisiae, subunit of complex I; Vps30/Atg6, S. cerevisiae, subunit of complex I; Atg14, S. cerevisiae, subunit of complex I; expected mass 379 kDa; also called CI; heterotetrameric S. cerevisiae complex I; copies: 1 + 1 + 1 + 1
T3 sequence (Q02948 whole entry, one chain of several): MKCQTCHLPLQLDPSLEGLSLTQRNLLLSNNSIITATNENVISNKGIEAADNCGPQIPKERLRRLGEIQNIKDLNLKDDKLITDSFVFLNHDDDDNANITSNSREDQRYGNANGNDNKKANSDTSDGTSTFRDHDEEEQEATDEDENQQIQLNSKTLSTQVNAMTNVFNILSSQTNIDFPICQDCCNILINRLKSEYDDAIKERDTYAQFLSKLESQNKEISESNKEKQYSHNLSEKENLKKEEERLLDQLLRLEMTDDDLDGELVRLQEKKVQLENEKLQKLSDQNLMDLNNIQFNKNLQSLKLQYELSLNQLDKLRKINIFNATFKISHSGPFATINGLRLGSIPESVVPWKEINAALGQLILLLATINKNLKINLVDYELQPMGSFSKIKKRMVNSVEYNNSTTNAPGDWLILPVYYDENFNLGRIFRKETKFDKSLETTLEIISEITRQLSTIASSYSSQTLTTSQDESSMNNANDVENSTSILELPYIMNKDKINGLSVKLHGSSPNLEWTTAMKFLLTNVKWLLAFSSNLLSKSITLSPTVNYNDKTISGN

[3] = molecular target: T4, Atg14 (subunit of the purified yeast complex I) (S. cerevisiae, UniProt P38270 1-344); test: HDX-MS; complex I, free Atg38 and gel-filtered complex I + Atg38; 2.5 µM protein, 20 mM Tris pH 8.0, 50 mM NaCl, 2 mM TCEP, 75% D2O, 3 to 3000 sec at 23°C; conditions: both partners purified
T4 construct: Atg14, S. cerevisiae
T4 sequence (looked up): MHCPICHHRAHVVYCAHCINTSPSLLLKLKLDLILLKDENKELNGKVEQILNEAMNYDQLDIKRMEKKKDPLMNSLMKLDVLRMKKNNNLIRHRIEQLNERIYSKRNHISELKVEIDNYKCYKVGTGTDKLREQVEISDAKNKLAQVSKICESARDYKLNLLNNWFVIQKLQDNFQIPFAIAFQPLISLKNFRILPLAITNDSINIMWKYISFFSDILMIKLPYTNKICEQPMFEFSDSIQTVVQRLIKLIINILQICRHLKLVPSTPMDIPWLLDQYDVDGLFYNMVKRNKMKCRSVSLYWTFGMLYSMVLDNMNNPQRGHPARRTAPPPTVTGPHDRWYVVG

[4] = molecular target: the molecule itself; test: SEC-MALS; Atg38 full-length, MIT domain and deletion variants alone on S75 10/30; 20 mM Tris pH 7.9, 300 mM NaCl, 1 mM TCEP
[5] = molecular target: T3, yeast complex I …; test: SEC; purified yeast complex I mixed with purified Atg38 at 6:1 or 1:6 molar ratio (8.6 µM complex I with 1.4 or 51.7 µM Atg38), on ice 30 min, S200 10/30; 20 mM Tris pH 8.8, 150 mM NaCl, 0.5 mM TCEP; fractions on SDS-PAGE; conditions: both partners purified

Row | Binder | binding result (Vps15 (WD40Δ) (1 to 981)) | binding result [1] | stoichiometry N [2] | binding result [3] | stoichiometry N [4] | stoichiometry N [5]
1 | B1 | binds | binds | – | – | – | –
2 | B2 | – | – | 1 Atg38 homodimer per complex I | binds | 2 | 2 Atg38 chains per complex I
